Reference: patent US10800813
Numbered stars: 1 amine (or outer) side, 2 acyl side, 3 side chain; on linkers, the order of the positions; unused ones are H or OH. Bridge positions count the residues as written; N and C are the ends. Ends that are not written are not given here. TBMB = c1c(C[*:1])cc(C[*:3])cc1C[*:2]

Biological target: Human factor XIa (human), P03951
Experiment: enzyme inhibition assay
Details: remark: other sources report otherwise

ACTYPYKCLHQNLCA (linker 2-8-14 via TBMB) [2A10]
Ki: 75 µM
